Measured values as given in article PMC3142331.

Target: Mce1-(227–567) protein, RNA guanylyltransferase (GTase) domain of mouse mammalian capping enzyme (mouse) (UniProt O55236)
Test: fluorescence polarisation

Mce1-(227–567) protein, RNA guanylyltransferase (GTase) domain of mouse mammalian capping enzyme (mouse), sequence (O55236 227-567): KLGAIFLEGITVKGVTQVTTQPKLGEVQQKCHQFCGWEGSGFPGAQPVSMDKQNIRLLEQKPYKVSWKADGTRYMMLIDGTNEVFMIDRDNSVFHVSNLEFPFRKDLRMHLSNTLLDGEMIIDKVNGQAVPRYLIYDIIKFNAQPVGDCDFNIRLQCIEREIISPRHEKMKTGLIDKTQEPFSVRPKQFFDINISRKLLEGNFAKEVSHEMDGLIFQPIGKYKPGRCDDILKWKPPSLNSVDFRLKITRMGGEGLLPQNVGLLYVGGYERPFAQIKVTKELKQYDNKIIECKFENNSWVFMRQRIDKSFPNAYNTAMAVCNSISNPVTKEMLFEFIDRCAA

Ki: 160 µM
Substance: unlabeled 11 aa phosphorylated CTD peptide (S2P3T4S5PP6S7Y1S2PP3T4S5)
